Substrate in this data set: CC(=O)N[C@@H](CS)C(=O)O
Put plainly: purified protein. The data set is classed as biochemical, Bacillus subtilis. The settings on record: 50 mM potassium phosphate pH 7.8, 5 mM CoCl2, 37 °C.

B1: ScmP (Bacillus subtilis subsp. subtilis str. 168) (protein)
chain: MADKAFHTRLINMRRDLHEHPELSFQEVETTKKIRRWLEEEQIEILDVPQLKTGVIAEIKGREDGPVIAIRADIDALPIQEQTNLPFASKVDGTMHACGHDFHTASIIGTAMLLNQRRAELKGTVRFIFQPAEEIAAGARKVLEAGVLNGVSAIFGMHNKPDLPVGTIGVKEGPLMASVDRFEIVIKGKGGHAGIPNNSIDPIAAAGQIISGLQSVVSRNISSLQNAVVSITRVQAGTSWNVIPDQAEMEGTVRTFQKEARQAVPEHMRRVAEGIAAGYGAQAEFKWFPYLPSVQNDGTFLNAASEAAARLGYQTVHAEQSPGGEDFALYQEKIPGFFVWMGTNGTEEWHHPAFTLDEEALTVASQYFAELAVIVLETIK
As for B1, the Km stood at 494.5 ± 67.4 µM, the Vmax worked out at 112 µmol/min/mg and the kcat was determined as 82.5 ± 9.2 s⁻¹.

B2: YtnL (Bacillus subtilis subsp. subtilis str. 168) (protein)
chain: MSLDYWRNIEGSYPYQTTGNDILTLKEESNPVNLSTLEKQLIGIRRHLHQYPELSKEEFETTAFIKKCLKEKGIQIRPTALKTGVFADIAGESEGPAIALRADIDALPIEEKTGLPYASKHKGIMHACGHDFHTAALLGAAFLLKENQDSLKGKIRLLFQPAEEAGAGATKVIEDGQLDGIDAVIGLHNKPDIAVGTVGLKTGPLMAAVDRFKVEIEGKGAHAALPHNGFDPIIGASQLIVALQTIVSRNVNPLQSAILTVGKINGGSTWNVIPDTVVIEGTVRTFDSEVRNQVKQRFFAVTEQISAAFSLKANVKWHSGPPPLCNDEAITGLVRDAAHKAKLQVIDPAPSTAGEDFAYYLEHIPGSFAFFGTDGDHDWHHPAFTIDETAIIKASYFLYESAKRLLDSNEESKISD
Consider B2, for which the Michaelis-Menten constant (Km) was 855.0 ± 339.2 µM, the Vmax came out at 43 µmol/min/mg, the kcat was 34.2 ± 3.8 s⁻¹ and the kcat/Km came out at 40000 ± 11000 M⁻¹ s⁻¹.

B3: YhaA (Bacillus subtilis subsp. subtilis str. 168) (protein)
chain: MSISTLQKEINKQLDGCFEEMVEIRRHFHMYPELSFQEEKTAAFIASYYESLGVPIRTNVGGRGVLANIEGSEPGPTVALRADFDALPIQDEKDVPYASKVPGVMHACGHDGHTAALLAVAKVLHQNRHELKGTFVMIHQHAEEYYPGGAKPMIDDGCLENTDVIFGTHLWATEPLGTILCRPGAVMAAADRFTIKVFGKGGHGAHPHDTKDAVLIGSQIVSSLQHIVSRKVNPIQSAVISTGSFIADNPFNVIADQAVLIGTARSFDENVRDILEKEIEAVVKGICSMHGASYEYTYEQGYPAVVNHPAETNHLVSTAKNTEGVQQVIDGEPQMGGEDFAYYLQNVKGTFFFTGAAPEQPERVYSHHHPKFDINEKAMLTAAKVLAGAAITYHQL
For the protein B3, the Km worked out at 895.8 ± 338.1 µM, the Vmax came out at 24.7 µmol/min/mg, the catalytic constant (kcat) was 18.8 ± 1.3 s⁻¹ and the kcat/Km worked out at 21000 ± 3700 M⁻¹ s⁻¹.

The values are drawn from paper PMC12757645, “Bacillus subtilis encodes three N-acetylcysteine deacetylase enzymes that can catalyze the final step in S-(2-succino)cysteine breakdown” (The Journal of Biological Chemistry, 2025).
